Measurements from US20220362404A1 (MACQUARIE UNIVERSITY, published 2022).

B1: GST-cyclin domain of cyclin F (aa 302-497) (other)
chain: QKGLNDTMRYILIDWLVEVATMKDFTSLCLHLTVECVDRYLRRRLVPRYRLQLLGIACMVICTRFISKEILTIREAVWLTDNTYKYEDLVRMMGEIVSALEGKIRVPTVVDYKEVLLTLVPVELRTQHLCSFLCELSLLHTSLSAYAPARLAAAALLLARLTHGQTQPWTTQLWDLTGFSYEDLIPCVLSLHKKCF
notes: Made in E. coli from pGEX5; also called cyclin box of cyclin F; cyclin F-GST (cyclin box); not shown: glutathione S-transferase (GST) tag of the pGEX5 vector
B2: Myc-tagged C-terminal fragment of TDP-43 (167-414) (other, UniProt Q13148 167-414, looked up)
chain: MIDGRWCDCKLPNSKQSQDEPLRSRKVFVGRCTEDMTEDELREFFSQYGDVMDVFIPKPFRAFAFVTFADDQIAQSLCGEDLIIKGISVHISNAEPKHNSNRQLERSGRFGGNPGGFGNQGGFGNSRGGGAGLGNNQGSNMGGGMNFGAFSINPAMMAAAQAALQSSWGMMGMLASQQNQSGPSGNNQNQGNMQREPNQAFGSGNNSYSGSNSGAAIGWGSASNAGSGSGFNGGFGSSMDSKSSGWGM
notes: Over-expressed in HEK293 cells with Flag-cyclin F; also called myc-TDP-43; not shown: myc tag, printed as myc-TDP-43

Assays:
[1] = target: T1, recombinant His-tagged TDP-43 (full length) (UniProt Q13148 1-414); test: microscale thermophoresis, labelled His-TDP-43, GST-cyclin domain titrated
T1 construct: In MST it was labelled with RED-tris-NTA dye on the His tag; also called His-TDP-43; recombinant TDP-43; not shown: His tag, printed as His-TDP-43
Experimental: Recombinant His-tagged TDP-43 (a gift from Professor Julie Atkin's laboratory) was diluted to 200 nM in PBS-T buffer (137 mM NaCl, 2.5 mM KCl, 10 mM Na2HPO4, 2 mM KH2PO4, pH 7.4; 0.05% (v/v) Tween-20). The RED-tris-NTA dye was diluted in PBS-T to 100 nM. For labelling, the recombinant protein and diluted dye were mixed in a 1:1 volume ratio and incubated for 30 minutes at room temperature. Recombinant cyclin F-GST was also diluted in PBS-T buffer prior to analysis. Concentrations of cyclin F-GST (cyclin box) ranged from 0-22 μM. Before MST measurements were carried out, samples were centrifuged for 10 minutes at 4° C. at 14,000×g. All MST measurements were performed on a NanoTemper Monolith™NT.115 instrument using standard treated capillaries at room temperature. Final dye concentration of 25 nM yielded the fluorescence intensity of around 300 counts at a LED power of 50%. Accordingly, the MST power range was between 40-60% intensity with a laser-on time of 30 s and a laser-off time of 5 s. All data were analysed by MO Affinity Analysis Software.

[2] = target: T2, Flag-tagged cyclin F (Homo sapiens (Human), UniProt P41002 1-786); test: co-immunoprecipitation with anti-myc from HEK293 lysate, immunoblot
T2 construct: Expressed in HEK293 cells and immunoprecipitated with anti-Flag; In the ubiquitylation assay it stood with co-immunoprecipitated Skp1, Cul1 and Rbx1; also called cyclin F-flag; Flag-cyclin F; not shown: C-terminal Flag tag
T2 sequence: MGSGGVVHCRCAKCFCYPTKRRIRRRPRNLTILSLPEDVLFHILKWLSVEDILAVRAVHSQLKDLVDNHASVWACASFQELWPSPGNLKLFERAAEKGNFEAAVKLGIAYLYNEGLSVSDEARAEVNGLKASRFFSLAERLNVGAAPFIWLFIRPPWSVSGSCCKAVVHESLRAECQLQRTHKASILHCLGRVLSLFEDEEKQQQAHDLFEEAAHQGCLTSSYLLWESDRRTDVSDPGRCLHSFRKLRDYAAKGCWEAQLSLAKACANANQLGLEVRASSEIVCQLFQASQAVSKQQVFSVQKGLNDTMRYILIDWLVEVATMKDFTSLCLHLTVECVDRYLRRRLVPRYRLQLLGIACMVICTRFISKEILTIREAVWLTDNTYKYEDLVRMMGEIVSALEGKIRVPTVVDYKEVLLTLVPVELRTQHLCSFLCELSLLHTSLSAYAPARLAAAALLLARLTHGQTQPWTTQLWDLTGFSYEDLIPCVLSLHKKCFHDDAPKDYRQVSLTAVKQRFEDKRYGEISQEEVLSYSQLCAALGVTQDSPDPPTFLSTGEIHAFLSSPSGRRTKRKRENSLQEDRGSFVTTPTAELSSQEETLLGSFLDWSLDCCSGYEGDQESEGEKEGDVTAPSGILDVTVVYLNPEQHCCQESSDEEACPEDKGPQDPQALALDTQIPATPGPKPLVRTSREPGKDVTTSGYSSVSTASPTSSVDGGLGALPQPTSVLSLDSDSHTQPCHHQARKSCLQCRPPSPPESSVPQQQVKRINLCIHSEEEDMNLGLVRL
Experimental: A. HEK293 cells were transfected with cyclin F-flag and TDP-43-HA. After 24 hours, cells were lysed and anti-flag antibodies or an IgG control were used to immunoprecipitate Flag-cyclin F. Eluates were analyzed by immunoblotting using antibodies recognizing cyclin F and TDP-43. B. HEK293 cells were transfected with cyclin F-flag and TDP-43-HA. At 24 hours post-transfection, cells were lysed and Flag-cyclin F was immunoprecipitated using antibodies recognizing the Flag tag. Eluates were analyzed by immunoblotting using antibodies recognizing cyclin F and phospho-TDP-43 (S409/410). C. Schematic showing the position of the RxL>AxA mutation within TDP-43. D. Cells were transfected with cyclin F and TDP-43(WT) or TDP-43(RxL>AxA). Cyclin F was immunoprecipitated from cell lysates using antibodies recognizing the Flag tag. Eluates were analyzed using anti-cyclin F and anti-TDP-43. E. Schematic showing the TDP-43 fragments used for immunoprecipitations. […] Eluates were analyzed by immunoblotting using antibodies recognizing cyclin F and myc.
In order to determine whether cyclin F interacts with TDP-43 through the typical RxL motif present in all known cyclin F substrates, constructs expressing wild-type TDP-43 or variant TDP-43 (RxL>AxA) were transfected into HEK293 cells (FIG. 1C). After 24 hours, the cells were lysed and Flag-cyclin F was immunoprecipitated and analyzed for TDP-43 by immunoblotting. […]

| Binder | binding result [1] | binding result [2] |
| --- | --- | --- |
| B1 | binds |  |
| B2 |  | no binding |
